From the nanobody polyreactivity screen of Harvey et al. (2022) come the findings set out here.

A short description of the data set: yeast display, Sf9 membrane polyspecificity reagent, FACS + sequencing; frameworks hold sequencing errors. Put shortly:
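Galactose-induced (36–48 hours) yeast carrying a synthetic nanobody display library were exposed to 10% biotinylated, detergent-solubilized Sf9 membrane reagent at 4 °C for 1 hour. FACS followed streptavidin microbead enrichment, using low and high (top ~1%) gates for expression (anti-HA) and reagent binding (streptavidin). Colony PCR, MiSeq 2 × 250 sequencing and CDR-length filtering followed. Labels for polyreactivity reflect the gate of origin.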
On to “QVQLVESGGGLVQAGGSLRLSCAASGSIFNTYAMGWYRQAPGKEREFVASISRSGGSTRYADSVKGRFTISRDNAKNTVYLQMNSLIPEDTAVYYCAASWLGASGIRYDYWGQGTQVTVSS”, for which the “polyreactivity (PSR sort gate)” value is reported as “high polyreactivity”. “QVQLVESGGGLVQAGGSLRLSCAASGSIFNTYVMGWYTQAPGKERELVAAITSSGGRTYYADSVKGRFTISRDNAKNTVYLQMNSLNPEDTAVYYCNTAQRWVGRNDYWGQGTQVTVSS”: the “polyreactivity (PSR sort gate)” value is “high polyreactivity”. Under “QVQLVESGGGLVQAGGSLRLSCAASGSIFNVYVMGWYRQAPGKERELVASITWTTGSTYADSVKGRFTISRDNAKNSVYFQMNSLKPEDTAVYYCNAEFPEDTSDDYWGQGTQVNVSS” stands “low polyreactivity”. In the case of “QVQLVESGGGLVQAGGSLRLSCAASGSIFNYNAMGWYRQAPGKERELVAAMSGSGGRTYYADSVKGRFTISRDNAKYTVYLQMNSLKPEDTAVYYCATYVRITPYEYWGQGTQVTVSS” it was “high polyreactivity”; in that of “QVQLVESGGGLVQAGGSLRLSCAASGSIFNYYAMGWSRQAPGKERELVAAITTSGGNTYYADSVKGRFTISRDNAKNNVYLQMNILKPEDTAVYYCNADYRQITSYGFDYWGQGSQVTVSS”, “low polyreactivity”; in that of “QVQLVESGGGLVQAGGSLRLSCAASGSIFNYYAMGWYRPAPGKERELVAGITTSGGSTYYADSVKGRFTISRDNAKNTVYLQMNSLKPEDTAVYYCAAYDYISSTYFLDDYWGQGTQVTVSS”, “low polyreactivity”. Under “QVQLVESGGGLVQAGGSLRLSCAASGSIFNYYAMGWYRQAPGKEREFVADISGSGSSTYYADSVKGRFTISRDNAKNTVYLQMNSLKPEDTAVYYCNAEYYWGVGYYPYSDYGYWGQGTQVTVSS” stands “low polyreactivity”; under “QVQLVESGGGLVQAGGSLRLSCAASGSIFNYYAMGWYRQAPGKERELVAAISWNGGRTYYADSVKGRFTISRDNAKNTVYLQMNSLKPEDTAVYYCNAYPAGYVAHTYDYWGQGTQVTVSS”, “high polyreactivity”.

Regarding “QVQLVESGGGLVQAGGSLRLSCAASGSIFNYYAMGWYRQAPGKERELVAGITSVGSTYYADSVKGRFTISRDNAKNTVYLQMNSLKPEDTAVYYCAAGYWYGMYYWGQGTQVTVSS”, the “polyreactivity (PSR sort gate)” value is given as “high polyreactivity”. In the case of “QVQLVESGGGLVQAGGSLRLSCAASGSIFNYYAMGWYRQAPGKESELVAGITTSGGSTYYADSVKGRFTISRDNAKNTVYLQMNSLKPEDTAVYYCAAYDYISSTYFLYDYWGQGTQVTVSS” it was “low polyreactivity”; in that of “QVQLVESGGGLVQAGGSLRLSCAASGSIFNYYTMGWYRQAPGKRELVAAITWSGDSTYYADSVKGRFTISRDNAKNTVYLQMNSLKPEDTAVYYCAAAQARRYYWGQGTQVTVSS”, “high polyreactivity”; in that of “QVQLVESGGGLVQAGGSLRLSCAASGSIFPAYAMGWYRQAPGKERELVAAITRGGSTDYADSVKGRFTISRDNAKNTVYLQMNSLKPEDTAVYYCATGDGPSLFDYWGQGTQVTVSS”, “low polyreactivity”. Under “QVQLVESGGGLVQAGGSLRLSCAASGSIFPDNAMGRYRQAAGKVRELVAAIDKGTGSTNYADSVKGRFTISRDNAKNSVYLQINSVKPEDTAGYYCDKGWLSPRGGAWYDDYWGQGTEVTVSS” stands “low polyreactivity”; under “QVQLVESGGGLVQAGGSLRLSCAASGSIFPDNAMGWDRQAPGKERELVAAITSGGGTYYADSVKGRFTISRDNAKNTVYLQMNSLKPEDTAVYYCNTEDYTQYEPGYYPPNYYWGQGTQVTVSS”, “low polyreactivity”. Consider “QVQLVESGGGLVQAGGSLRLSCAASGSIFPDNAMGWYRQAPGKERELVAAITRGGSTYYADSVKGRFTISRDNAKNTVYLQMNSLKPEDTAVYYCAARRRYLWSYDYWGQGTQVTVSS”, for which the “polyreactivity (PSR sort gate)” value is recorded as “high polyreactivity”. On to “QVQLVESGGGLVQAGGSLRLSCAASGSIFPDNAMRWYRQAPGKERELVAAITRGGSTYYADSVKGRFTISRDNAKNTVYLQMNSLKPEDTAVYYCAARRRYLWSYDYWGQGTQVTVSS”, for which the “polyreactivity (PSR sort gate)” value is “high polyreactivity”. In the case of “QVQLVESGGGLVQAGGSLRLSCAASGSIFPDYAMGGYRQAPGKERELVAAITWSGGNTYYADSVKGRFTISRDNAKNTVYLQMNSLKPEDTAVYYCAADISLHWYYYRRYNYWGQGTQVTVSS” it was “low polyreactivity”; in that of “QVQLVESGGGLVQAGGSLRLSCAASGSIFPENVMGWYRQAPGKERELVAAISWSGGSTYYADSVKGRFTISRDNAKNTVYLQMNSLKPEVTAVYYCNRVPSWRIDYDYWGQGTQVTVSS”, “low polyreactivity”. In the case of “QVQLVESGGGLVQAGGSLRLSCAASGSIFPGNGMGWYRQAPGKEMELVASITSGARTNYADSVKGRFTISRDNAKNTVYFPMNSLIPEDTAVYYCAADIKSSIRRAYDYWGQGSQVTVSS” it was “high polyreactivity”. Consider “QVQLVESGGGLVQAGGSLRLSCAASGSIFPGYAMGWYRQAPGKERELVAAITFSGGSTYYADSVKGRFTISRDNAKNTVYLLMISLKPEDTAVYYCAAPGWYGGYPSFYYWGQGTQVTVSS”, for which the “polyreactivity (PSR sort gate)” value is listed as “low polyreactivity”. Turning to “QVQLVESGGGLVQAGGSLRLSCAASGSIFPGYAMGWYRQAPGKERELVATITWSGGSTYYADSVKGRFTISRDNAKNTVYLQMNSLKPEDTAVYYCAADGVDRYLRTISYLYGYWGQGTQVTVSS”, the “polyreactivity (PSR sort gate)” value is recorded as “low polyreactivity”.

For the sequence “QVQLVESGGGLVQAGGSLRLSCAASGSIFPGYAMGWYRQAPGKERELVATITWSGGSTYYADSVKGRFTISRDNAMNTVYLQMNSLKPEDTAVYYCNADSNWYYQLNYYGLYDYWGQGTQVTVSS”, the “polyreactivity (PSR sort gate)” value was “low polyreactivity”. Under “QVQLVESGGGLVQAGGSLRLSCAASGSIFPGYAMGWYRQAPGKERELVATITYSDGSTYYADSVKRRFTISRDIATNTVFLQMNSLKPEDTAGYYCAVTYWWYYGYDYWGQGTQVTVSS” stands “low polyreactivity”; under “QVQLVESGGGLVQAGGSLRLSCAASGSIFPHNAMGWYRQAPGKERELVAAISWRDVITYYADSVKGRFTISRDNAKNTVYLQMNSLKPEDTAVYYCAAELRVYGVDYEYWGQGTQVTVSS”, “high polyreactivity”; under “QVQLVESGGGLVQAGGSLRLSCAASGSIFPHYAMGWNRQAPGKERELVAAISSGGRTYYADSVKGRFTISRDNAKNTVYLQMNSLKPEDTAVYYCAARRIARKGYGYWGQGTQVTVSS”, “high polyreactivity”. Under “QVQLVESGGGLVQAGGSLRLSCAASGSIFPIYAMGWYRQAPGKERELVAAINRSGGSTYYADSGKGRFTISRDHAKTTVYLQMNSLKPEETAVYDCNADYGYHNQLFRGYYGWSSDHWGQGTQVTVSS” stands “low polyreactivity”. Consider “QVQLVESGGGLVQAGGSLRLSCAASGSIFPLYAMGWYRQAPGKERELVADITVSGGSTYYADSVKGRFTISRDNAKNTVYLQMNSLKPEDTAVYYCAKDNGPWFAYDYWGQGTQVTVSS”, for which the “polyreactivity (PSR sort gate)” value was “low polyreactivity”. In the case of “QVQLVESGGGLVQAGGSLRLSCAASGSIFPQYAMGWYRQAPGKERELVAAITWSGSRTRYADSVKGRFTISRDNAKNTVYLQMNSLKPEDTAVYYCNAVNYRSSRDSGYWGQGTQVTVSS” it was “high polyreactivity”; in that of “QVQLVESGGGLVQAGGSLRLSCAASGSIFPQYAMGWYRQAPGKERELVASITDSGGRTYYADSVKGRFTISRDNAKNTVYLQMHSLKPEDTAVYYCAAVSLWWSDYYFVEYDYWGQGTQVTVSS”, “high polyreactivity”; in that of “QVQLVESGGGLVQAGGSLRLSCAASGSIFPQYAMGWYRQAPGTERELVDAITWSGSRTRYADSVKGRFTISRDNAKNTVYLQMNSLKPEDTAVYYCAARFNGQTYYYCGQGTQVTVSS”, “high polyreactivity”. In the case of “QVQLVESGGGLVQAGGSLRLSCAASGSIFPRYAMGWYRQAPGKEREFVAAITGSGSSTYYADSVKGRFTISRDNAKNTVYLQMNSLKPEDTAVYYCAARKARPPFPHPFDYYWGQGTQVTVSS” it was “low polyreactivity”; in that of “QVQLVESGGGLVQAGGSLRLSCAASGSIFPSNAMGWYRQAPGKERELVAGITRGGSTNYADSVKGRFTISRDNAKNTVYLQMNSLKPEDTAVYYCAADSGFDTAPYDYWGQGTQVTVSS”, “low polyreactivity”. Under “QVQLVESGGGLVQAGGSLRLSCAASGSIFPSNVMGSYRQAPGKERELVAAISNTGSTNYADSVKGRFTISRDNAKNTVYLQMNSLKPEDTAVYYCNADASYGFWSLLDYDYWGQGTQVTVSS” stands “low polyreactivity”. Consider “QVQLVESGGGLVQAGGSLRLSCAASGSIFPSYAMGWYRQAPGKERELVATISGSGTRTYYADSVKGRFTISRDNAKNTVYVQMNSLKPEDTAVYDCARLPPGDMDYWGQGTQVTVSS”, for which the “polyreactivity (PSR sort gate)” value was “low polyreactivity”. In the case of “QVQLVESGGGLVQAGGSLRLSCAASGSIFPSYAMGWYRQAPGQERELVATIGRGGTTNYADSVKGRFTISRDNAKNTVYLQMNSLKPEDTAVYYCNAERIWRYKYGYDYWGQGTQVNVSS” it was “high polyreactivity”; in that of “QVQLVESGGGLVQAGGSLRLSCAASGSIFPTYAMGWYRQAPGKERELVAAIRSGSNTYYADSVKGRFTISRDNAKNTVYLQMNSLKPEDTAVYYCNVGPQRKYPGRRTVPFGYWGQGTQVTVSS”, “low polyreactivity”; in that of “QVQLVESGGGLVQAGGSLRLSCAASGSIFPVYAMGWYRQAHGKVREFVASIRWRGGSTSYADSVKGRFTISRDNAKNTVYLQMNSLKPEETAVYYCNAVYYSWSQSARFDYWGQGTQVTVSS”, “low polyreactivity”.

As for “QVQLVESGGGLVQAGGSLRLSCAASGSIFPVYAMGWYRQAPGKDRELVAAISFSTGSTYYADSVKGRFTISRDNAKNTVYLQMNSLKPEDTAVFYCAKYDYTDYEYWGQGTQVTVSS”, the “polyreactivity (PSR sort gate)” value was “high polyreactivity”. In the case of “QVQLVESGGGLVQAGGSLRLSCAASGSIFPVYAMGWYRQAPGKERELVAAISSRGGTTYYADSVKGRFTISRDNAKNTVYLQMNSLKPEDTAVYYCAATRSGKYYGTRRKYGYWGQGTQVTVSS” it was “high polyreactivity”; in that of “QVQLVESGGGLVQAGGSLRLSCAASGSIFPVYAMGWYRQAPGKERELVASISTGGSTYYADSVKGRFTISRDNAKNTVYLQMNSLKPEDTAVYYCAATGWAYGYGYGYWGQGTQVTVSS”, “low polyreactivity”; in that of “QVQLVESGGGLVQAGGSLRLSCAASGSIFPWNTMGWYRQAPGKERELVARISTSGASTYYADSVKGRFTISRDNAKYTVYLQMNSLKQEDTAVYFCAKVRHYGGRSWWYYYWGQGTQVTVSS”, “high polyreactivity”.
